Source: patent publication US20150329606A1 (COMMISSARIAT A L ENERGIE ATOMIQUE ET AUX ENERGIES …, published 2015)

Target: T1, C1q derived from serum (human, UniProt P02745 23-245; P02746 28-253; P02747 29-245)
T1 construct: mature; Native C1q from serum, the comparator in SPR; The SPR paragraph says only 'serum C1q'; also called serC1q; serum C1q
Test: SPR, C1q immobilized on CM5 chip, tetramer injected at 1-24 nM

T1 sequence (P02745 23-245, chain 1 of 3): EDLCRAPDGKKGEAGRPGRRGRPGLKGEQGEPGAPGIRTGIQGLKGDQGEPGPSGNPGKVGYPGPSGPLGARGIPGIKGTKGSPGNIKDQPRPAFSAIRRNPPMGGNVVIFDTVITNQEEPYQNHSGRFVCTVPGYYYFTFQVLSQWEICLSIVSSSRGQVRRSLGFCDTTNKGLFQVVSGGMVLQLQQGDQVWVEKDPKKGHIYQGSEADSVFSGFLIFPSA
T1 sequence (P02746 28-253, chain 2 of 3): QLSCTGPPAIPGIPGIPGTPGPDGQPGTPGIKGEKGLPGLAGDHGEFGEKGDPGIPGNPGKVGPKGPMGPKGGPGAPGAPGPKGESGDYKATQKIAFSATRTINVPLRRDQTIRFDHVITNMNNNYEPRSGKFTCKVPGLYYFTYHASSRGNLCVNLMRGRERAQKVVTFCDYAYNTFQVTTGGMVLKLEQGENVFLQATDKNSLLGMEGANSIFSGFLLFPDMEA
T1 sequence (P02747 29-245, chain 3 of 3): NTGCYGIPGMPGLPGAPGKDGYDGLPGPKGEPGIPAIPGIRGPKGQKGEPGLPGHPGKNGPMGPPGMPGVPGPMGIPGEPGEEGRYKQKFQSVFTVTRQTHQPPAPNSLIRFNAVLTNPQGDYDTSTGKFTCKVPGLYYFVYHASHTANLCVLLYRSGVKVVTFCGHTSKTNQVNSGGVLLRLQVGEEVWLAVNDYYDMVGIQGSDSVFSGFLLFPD

B1: C1s-C1r-C1r-C1s tetramer (enzyme)
chain 1: SIPIPQKLFGEVTSPLFPKPYPNNFETTTVITVPTGYRVKLVFQQFDLEPSEGCFYDYVKISADKKSLGRFCGQLGSPLGNPPGKKEFMSQGNKMLLTFHTDFSNEENGTIMFYKGFLAYYQAVDLDECASRSKSGEEDPQPQCQHLCHNYVGGYFCSCRPGYELQEDTHSCQAECSSELYTEASGYISSLEYPRSYPPDLRCNYSIRVERGLTLHLKFLEPFDIDDHQQVHCPYDQLQIYANGKNIGEFCGKQRPPDLDTSSNAVDLLFFTDESGDSRGWKLRYTTEIIKCPQPKTLDEFTIIQNLQPQYQFRDYFIATCKQGYQLIEGNQVLHSFTAVCQDDGTWHRAMPRCKIKDCGQPRNLPNGDFRYTTTMGVNTYKARIQYYCHEPYYKMQTRAGSRESEQGVYTCTAQGIWKNEQKGEKIPRCLPVCGKPVNPVEQRQRIIGGQKAKMGNFPWQVFTNIHGRGGGALLGDRWILTAAHTLYPKEHEAQSNASLDVFLGHTNVEELMKLGNHPIRRVSVHPDYRQDESYNFEGDIALLELENSVTLGPNLLPICLPDNDTFYDLGLMGYVSGFGVMEEKIAHDLRFVRLPVANPQACENWLRGKNRMDVFSQNMFCAGHPSLKQDACQGDSGGVFAVRDPNTDRWVATGIVSWGIGCSRGYGFYTKVLNYVDWIKKEMEEED
chain 2: EPTMYGEILSPNYPQAYPSEVEKSWDIEVPEGYGIHLYFTHLDIELSENCAYDSVQIISGDTEEGRLCGQRSSNNPHSPIVEEFQVPYNKLQVIFKSDFSNEERFTGFAAYYVATDINECTDFVDVPCSHFCNNFIGGYFCSCPPEYFLHDDMKNCGVNCSGDVFTALIGEIASPNYPKPYPENSRCEYQIRLEKGFQVVVTLRREDFDVEAADSAGNCLDSLVFVAGDRQFGPYCGHGFPGPLNIETKSNALDIIFQTDLTGQKKGWKLRYHGDPMPCPKEDTPNSVWEPAKAKYVFRDVVQITCLDGFEVVEGRVGATSFYSTCQSNGKWSNSKLKCQPVDCGIPESIENGKVEDPESTLFGSVIRYTCEEPYYYMENGGGGEYHCAGNGSWVNEVLGPELPKCVPVCGVPREPFEEKQRIIGGSDADIKNFPWQVFFDNPWAGGALINEYWVLTAAHVVEGNREPTMYVGSTSVQTSRLAKSKMLTPEHVFIHPGWKLLEVPEGRTNFDNDIALVRLKDPVKMGPTVSPICLPGTSSDYNLMDGDLGLISGWGRTEKRDRAVRLKAARLPVAPLRKCKEVKVEKPTADAEAYVFTPNMICAGGEKGMDSCKGDSGGAFAVQDPNDKTKFYAAGLVSWGPQCGTYGLYTRVKNYVDWIMKTMQENSTPRED
notes: also called C1s-C1r-C1r-C1s proenzyme tetramer;2-C1s2
B1 was tested, and the Kd was 3.12 nM, the koff was 0.00212 s⁻¹ and the kon was 681000 M⁻¹ s⁻¹.
